{
  "source": "patent US20200207859A1",
  "about": "(priority 2017, published 2020)",
  "key": {"K562 (CML)": {"test_system": "K562 (CML)", "test": "Cell killing assay (cell proliferation, Cell Titer-Glo)", "format": "cell-based", "parameters": "key to Cell Killing Activity Span: NK = no killing; NB = no binding", "conditions": "72 hrs", "procedure": "(§1) Cytotoxicity effects of the free drug linkers and conjugates were measured with a cell proliferation assay. A total of 12500 cells in a volume of 25 μl were seeded in a 384-well flat bottom white polystyrene plate on the day of assay. Free drug-linkers and conjugates were formulated at 2× starting concentration (1000 nM for free drug linkers and 100 nM for ADCs) in RPMI medium and filtered through MultiScreen HTS 96-Well Filter Plates (Millipore). Filter sterilized samples were serial diluted (1:3) under sterile conditions and added into treatment wells. Plates were cultured at 37° C. in a CO2 incubator for 72 hrs. For cell viability measurement, 30 μl of Cell Titer-Glo® reagent (Promega Corp.) was added into each well, and plates processed as per product instructions. Relative luminescence was measured on an ENVISION® plate reader (Perkin-Elmer; Waltham, Mass.). Relative luminescence readings were converted to % viability using untreated cells as controls. Data was fitted with non-linear regression analysis, using log(inhibitor) vs. response, variable slope, 4 parameter fit equation using GraphPad Prism. Data was expressed as % relative cell viability vs. dose of free drug-linker or conjugate in nM."}, "OPM-2 (MM)": {"test_system": "OPM-2 (MM)", "test": "Cell killing assay (cell proliferation, Cell Titer-Glo)", "format": "cell-based", "parameters": "key to Cell Killing Activity Span: NK = no killing; NB = no binding", "conditions": "72 hrs", "procedure": "as §1"}, "RPMI-8226 (MM)": {"test_system": "RPMI-8226 (MM)", "test": "Cell killing assay (cell proliferation, Cell Titer-Glo)", "format": "cell-based", "parameters": "key to Cell Killing Activity Span: NK = no killing; NB = no binding", "conditions": "72 hrs", "procedure": "as §1"}, "HH T lymphoma cells": {"test_system": "HH T lymphoma cells", "test": "T lymphoma cell line cell killing assay", "format": "cell-based", "conditions": "120 hours", "procedure": "(§2) A total of 12500 cells in a volume of 25 μL were seeded in a 384-well flat bottom white polystyrene plate the day before the assay. […] Filter-sterilized compounds were serial diluted in culture medium and 25 μL of the compounds were added into treatment wells in quadruplicates. Plates were cultured at 37° C. in a CO2 incubator for 120 hours. For cell viability measurement, 30 μL of Cell Titer-Glo® reagent (Promega Corp.; Madison, Wis.) was added into each well, and plates were processed per product instructions. Relative luminescence was measured on an ENVISION® plate reader (Perkin-Elmer; Waltham, Mass.). Relative luminescence readings were converted to percent (%) viability using untreated cells as controls. Data was fitted with non-linear regression analysis, using log(inhibitor) vs. response, variable slope, 4-parameter fit equation using GraphPad Prism (GraphPad v 5.00, Software; San Diego, Calif.). Data was expressed as percent (%) relative cell viability (average of the quadruplicates) vs. dose of compounds in units of nanomolar (nM). Cell killing EC50 values and span were calculated by Prism in order to evaluate the potency of each compound on each cell line."}, "HuT-78 T lymphoma cells": {"test_system": "HuT-78 T lymphoma cells", "test": "T lymphoma cell line cell killing assay", "format": "cell-based", "conditions": "HuT-78, 120 hours", "procedure": "as §2"}, "My-La T lymphoma cells": {"test_system": "My-La T lymphoma cells", "test": "T lymphoma cell line cell killing assay", "format": "cell-based", "conditions": "120 hours", "procedure": "as §2"}, "[1]": {"test_system": "MM.1S multiple myeloma cells", "test": "Disseminated MM.1S multiple myeloma model", "format": "in vivo, mouse", "conditions": "NSG mice; for survival: MM.1S i.v., day 129 post inoculation; for tumor burden: hCD138+ myeloma cells in the bone marrow / hCD138+ cells in the bone marrow: MM.1S; for tumor burden: hCD138+ myeloma cells in the bone marrow: day 32; for hCD138+ cells in the bone marrow: day 129", "procedure": "Female NOD SCID gamma (NSG) mice 8 weeks of age were inoculated with multiple myeloma MM.1S cells into the tail vein. Randomization by body weight and start of treatment was initiated 11 days post tumor inoculation. Treatment groups are outlined in Table 5. Test articles were formulated in 10 mM citrate, pH 6.0, 10% sucrose and diluted in PBS for administration. […] For each group, a subset of animals was used for bone marrow harvest and analysis (n=3) and the remaining animals (n=5) were monitored for survival. Survival endpoint was characterized by >20% body weight loss and clinical signs including lethargy, hind limb paralysis or moribundity. On day 32 (3 weeks after start of treatment), 3 animals from each group were randomly chosen to be euthanized for bone marrow harvest (pooled from tibia and femur) for flow cytometry. On day 129 (˜4 months after start of treatment), all surviving animals were euthanized and bone marrow was harvested (pooled from tibia and femur) for flow cytometry.\nBody weights were monitored at least twice per week for up to 129 days. All graphs are presented as mean±standard error of the mean (SEM) versus days post-treatment start.\nPercent body weight change (BWC) is calculated relative to weight on the day of treatment. Substantial toxicity was defined as a >20% decrease in animal weight, at which point affected animals are euthanized.\nBone marrow cells from mouse femur and tibia were pooled and assessed for human CD138 expression using the Alexa Fluor 647 mouse anti-human CD138 clone MI15 (BD Biosciences #562097) according to the manufacturer's protocol. CD138 is a specific surface antigen for MM and plasma cells in the bone marrow (Chilosi, M. et al. (1999), supra). Direct immunofluorescence flow cytometric analysis was performed using an LSRII flow cytometer and FACS Diva Software. Data was analyzed using Flowjo (Tree Star, Inc., Ashland, Oreg.).\nHuman CD138+ cells in the bone marrow on day 32 was analyzed using one-way analysis of variance (ANOVA) with a Dunnett's adjustment at 0.05 significance level. Data from MM.1 s positive control were excluded from analysis. A probability of less than 5% (p<0.05) was considered as significant."}},
  "data": [
    {"molecule": "Conjugate A: anti-CD74 IgG with pAMF at heavy chain EU position 404 conjugated to DBCO-PEG4-maytansine (conjugate, non-natural residues) VH: QVQLVESGGGVVQPGRSLRLSCAASGFNFSDYGMHWVRQAPGKGLEWVAVIWYDGSISYYADSVKGRFTISRDNSKNTLYLQMNSLRAEDTAVYYCARGGTVEHGAVYGTDVWGQGTTVTVSS VL: DIQMTQSPSSVSASVGDRVTITCRASQGIGSWLAWYQQKPGKAPKLLIYAADRLQSGVPSRFSGSGSGTDFTLTISSLQPEDFATYYCQQYHTYPLTFGGGTKVEIK", "values": [
      {"measurement": "Cell Killing Activity Span", "setting": "K562 (CML)", "value": "NK"},
      {"measurement": "IC50", "setting": "K562 (CML)", "value": "> 50", "unit": "nM"},
      {"measurement": "Cell Killing Activity Span", "setting": "OPM-2 (MM)", "value": "NK"},
      {"measurement": "IC50", "setting": "OPM-2 (MM)", "value": "> 50", "unit": "nM"},
      {"measurement": "Cell Killing Activity Span", "setting": "RPMI-8226 (MM)", "value": "NK"},
      {"measurement": "IC50", "setting": "RPMI-8226 (MM)", "value": "> 50", "unit": "nM"},
      {"measurement": "Cell killing Span", "setting": "HH T lymphoma cells", "value": 77, "unit": "%"},
      {"measurement": "EC50", "setting": "HH T lymphoma cells", "value": 0.22, "unit": "nM"},
      {"measurement": "cell killing activity (in words)", "setting": "HH T lymphoma cells", "value": "potent cell killing activity"},
      {"measurement": "Cell killing Span", "setting": "HuT-78 T lymphoma cells", "value": 72, "unit": "%"},
      {"measurement": "EC50", "setting": "HuT-78 T lymphoma cells", "value": 0.59, "unit": "nM"},
      {"measurement": "cell killing activity (in words)", "setting": "HuT-78 T lymphoma cells", "value": "potent cell killing activity"},
      {"measurement": "Cell killing Span", "setting": "My-La T lymphoma cells", "value": 73, "unit": "%"},
      {"measurement": "EC50", "setting": "My-La T lymphoma cells", "value": 0.54, "unit": "nM"},
      {"measurement": "cell killing activity (in words)", "setting": "My-La T lymphoma cells", "value": "potent cell killing activity"},
      {"measurement": "survival", "setting": "[1]; 3 mg/kg q7dx3 IV", "value": 100, "unit": "%"},
      {"measurement": "survival", "setting": "[1]; 10 mg/kg q7dx3 IV", "value": 100, "unit": "%"},
      {"measurement": "tumor burden: hCD138+ myeloma cells in the bone marrow", "setting": "[1]; 3 mg/kg q7dx3 IV", "value": "significantly reduced tumor burden"},
      {"measurement": "hCD138+ cells in the bone marrow", "setting": "[1]; 3 mg/kg q7dx3 IV", "value": "no hCD138+ cells were detected"},
      {"measurement": "tumor burden: hCD138+ myeloma cells in the bone marrow", "setting": "[1]; 10 mg/kg q7dx3 IV", "value": "significantly reduced tumor burden"},
      {"measurement": "hCD138+ cells in the bone marrow", "setting": "[1]; 10 mg/kg q7dx3 IV", "value": "no hCD138+ cells were detected"}
    ]}
  ]
}
